From paper PMC7112112

Assays:
[1] = 20-60% sucrose gradient ultracentrifugation, anti-M blot; conditions: glycan lost; control: WTrIBV
[2] = indirect immunofluorescence, infected Vero cells; conditions: glycan lost; control: WTrIBV
[3] = growth curve, TCID50, Vero cells; conditions: glycan lost; control: WTrIBV
[4] = plaque size and shape, Vero cells; conditions: glycan lost; control: WTrIBV
[5] = RT-qPCR of IBV gRNA and sgRNA2; conditions: glycan lost; control: WTrIBV
[6] = co-expression with E in COS-7, pelleted VLP blot; conditions: glycan lost; control: MWT

B1: IBV M protein (membrane protein): rN3D/N6D (protein)
parent chain: MPNETNCTLDFEQSVQLFKEYNLFITAFLLFLTIILQYGYATRSKVIYTLKMIVLWCFWPLNIAVGVISCTYPPNTGGLVAAIILTVFACLSFVGYWIQSIRLFKRCRSWWSFNPESNAVGSILLTNGQQCNFAIESVPMVLSPIIKNGVLYCEGQWLAKCEPDHLPKDIFVCTPDRRNIYRMVQKYTGDQSGNKKRFATFVYAKQSVDTGELESVATGGSSLYT
no change: other: virion sedimentation [1] | localisation_or_trafficking [2] | other: viral replication [3] | other: viral replication [4] | other: viral replication [5]

B2: IBV M protein (membrane protein): MN3D/N6D (protein)
parent chain: B1 parent chain
no change: other: VLP formation [6]
